In paper PMC4936993, “Preparation of a functional fluorescent human Fas ligand extracellular domain derivative using a three-dimensional structure guided site-specific fluorochrome conjugation” (SpringerPlus, 2016):

Target: T1, FL-5Mal conjugated NFG1CG4-hFasLECD (human, UniProt P48023 139-281, N184Q | N250Q, Fluorescein-5-Maleimide conjugated to the unpaired cysteine in the N-terminal tag sequence (estimated 2.5 per trimer, approximately 83 % of the cysteines))
T1 construct: linker of the N-terminal tag, between FLAG (DYKDDDDK) and residue 139 of hFasLECD; printed in three-letter code; its Cys is the conjugation site; human Fas ligand (CD178) extracellular domain with residues 103-138 deleted: hFasLECD (139-281, N184Q, N250Q); It calls the protein a trimer in words only; also called Fluorescein-5-Maleimide conjugated human Fas ligand extracellular domain derivative; …
T1 sequence: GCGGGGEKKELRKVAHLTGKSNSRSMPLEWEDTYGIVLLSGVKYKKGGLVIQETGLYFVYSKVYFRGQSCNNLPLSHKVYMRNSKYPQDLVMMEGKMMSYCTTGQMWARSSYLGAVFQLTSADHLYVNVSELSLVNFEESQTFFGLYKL
Test: SEC; mixtures of hFasRECD-Fc and the conjugate in several amount ratios on Superdex 200 10/300 GL; 50 mM Tris-hydrochloride, 150 mM sodium chloride, pH 7.5; 0.5 ml/min; absorbance at 280 and 495 nm
Conditions: both partners purified

B1: human Fas receptor extracellular domain—human IgG1 Fc domain fusion protein (Fc fusion, UniProt P25445 26-173, looked up)
chain: QVTDINSKGLELRKTVTTVETQNLEGLHHDGQFCHKPCPPGERKARDCTVNGDEPDCVPCQEGKEYTDKAHFSSKCRRCRLCDEGHGLEVEINCTRTQNTKCRCKPNFFCNSTVCEHCDPCTKCEHGIIKECTLTSNTKCKEEGSRSN
notes: human Fas receptor (CD95) extracellular domain; also called hFasRECD-Fc; source: baculovirus—Bombyx mori larvae expression system, purified (Hi-Trap Protein G HP, Mono Q 10/10; main peak also by Superdex 200)
binding result: binds
